Laboratory results taken from paper PMC7885266.

Target: 3TBP-CTPR6-foldon
Experiment: co-sedimentation; co-precipitation assay: 10 μM hTNKS2 ARC1–3 mixed with an equal volume of CTPR protein (fixed or increasing concentrations) in 50 mM Tris-HCl, 150 mM NaCl, 0.5 mM TCEP, pH 7.3; 1 h at room temperature, 20 000g 30 min; supernatant and pellet on SDS-PAGE, band densities give the stoichiometry in the pellet

- stoichiometry N: 2
B1: Tankyrase-2 Ankyrin Repeat Clusters 1-3 (residues 2-485) (domain or fragment)
chain: SGRRCAGGGAACASAAAEAVEPAARELFEACRNGDVERVKRLVTPEKVNSRDTAGRKSTPLHFAAGFGRKDVVEYLLQNGANVQARDDGGLIPLHNACSFGHAEVVNLLLRHGADPNARDNWNYTPLHEAAIKGKIDVCIVLLQHGAEPTIRNTDGRTALDLADPSAKAVLTGEYKKDELLESARSGNEEKMMALLTPLNVNCHASDGRKSTPLHLAAGYNRVKIVQLLLQHGADVHAKDKGDLVPLHNACSYGHYEVTELLVKHGACVNAMDLWQFTPLHEAASKNRVEVCSLLLSYGADPTLLNCHNKSAIDLAPTPQLKERLAYEFKGHSLLQAAREADVTRIKKHLSLEMVNFKHPQTHETALHCAAASPYPKRKQICELLLRKGANINEKTKEFLTPLHVASEKAHNDVVEVVVKHEAKVNALDNLGQTSLHRAAYCGHLQTCRLLLSYGCDPNIISLQGFTALQMGNENVQQLLQEGI
